Results on 1 molecule are retold here after patent US20190389961A1 (INNATE PHARMA, published 2019).

Substitutions are numbered along the chain they refer to. Names may count otherwise.

Assay [1] addresses T1, cynomolgus (Macaca fascicularis) CD39 expressed on CHO cells (cynomolgus (Macaca fascicularis), UniProt A0A7N9DGH8 1-510).
T1 construct: whole, on cells; also called CHO-cyCD39; cyCD39
T1 sequence: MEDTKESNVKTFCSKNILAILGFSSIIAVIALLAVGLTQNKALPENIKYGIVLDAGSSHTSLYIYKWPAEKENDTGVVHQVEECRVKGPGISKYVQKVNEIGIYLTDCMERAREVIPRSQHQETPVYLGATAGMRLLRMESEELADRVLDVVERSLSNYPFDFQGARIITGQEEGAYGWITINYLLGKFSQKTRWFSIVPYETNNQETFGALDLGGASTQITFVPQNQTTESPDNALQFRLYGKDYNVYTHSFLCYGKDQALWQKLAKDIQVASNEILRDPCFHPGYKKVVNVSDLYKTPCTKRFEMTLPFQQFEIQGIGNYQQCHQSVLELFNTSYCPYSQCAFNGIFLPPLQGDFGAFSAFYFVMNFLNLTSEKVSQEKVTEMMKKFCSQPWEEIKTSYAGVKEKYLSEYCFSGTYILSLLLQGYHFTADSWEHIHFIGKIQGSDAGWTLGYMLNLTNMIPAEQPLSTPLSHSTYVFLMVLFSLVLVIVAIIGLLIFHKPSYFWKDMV
Kind of assay: flow cytometry titration on CHO-cyCD39 cells. As for the experimental part:
(§1) Cells were incubated with various concentration of unlabeled anti-CD39 antibody from 30 μg/ml to 5×10-⁴ μg/ml, for 30 minutes at 4° C. After washes, cells were incubated with Goat anti-mouse H+L labeled secondary antibody for 30 min at 4° C.

In assay [2] the target is T2, human CD39 (vascular CD39, NTPDase1) expressed at the surface of cells (human, UniProt P49961 1-510).
T2 construct: also called huCD39; CHO-huCD39
T2 sequence: T1 sequence with I47V, Y94F, I221V, T230I, V329I, N368K, S391A, V489F, I490T
Kind of assay: flow cytometry titration on CHO-huCD39 cells. As for the experimental part: as §1

Assay [3] has as its target T2, human CD39 (vascular CD39, NTPDase1) …. Kind of assay: flow cytometry on Ramos lymphoma cells, first set of experiments. As for the experimental part:
as §1

For a further assay, the target named is T3, human CD39 mutant 5 (human, UniProt P49961 1-510).
T3 construct: Expressed on Hek-293T cells; also called M5
T3 chain: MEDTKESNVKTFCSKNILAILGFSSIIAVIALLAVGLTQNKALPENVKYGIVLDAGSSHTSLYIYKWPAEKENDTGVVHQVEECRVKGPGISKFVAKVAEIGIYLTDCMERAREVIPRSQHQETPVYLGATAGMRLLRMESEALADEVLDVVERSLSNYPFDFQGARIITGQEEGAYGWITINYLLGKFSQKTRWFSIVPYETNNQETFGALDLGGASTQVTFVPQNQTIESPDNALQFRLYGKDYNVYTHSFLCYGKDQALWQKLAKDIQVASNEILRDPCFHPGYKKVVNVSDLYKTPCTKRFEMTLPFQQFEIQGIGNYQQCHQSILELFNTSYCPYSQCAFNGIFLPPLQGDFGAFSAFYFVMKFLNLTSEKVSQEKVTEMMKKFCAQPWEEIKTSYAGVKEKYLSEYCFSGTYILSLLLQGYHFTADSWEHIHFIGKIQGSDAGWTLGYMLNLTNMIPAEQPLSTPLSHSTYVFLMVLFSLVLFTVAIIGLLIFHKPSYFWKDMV
Kind of assay: flow cytometry on Hek-293T cells expressing CD39 mutant 5 (panel M5); unstained (US) median 8,98; antibody concentration not shown. As for the experimental part:
Mutants were transfected in Hek-293T cells, as shown in the table 1, using numbering of SEQ ID NO: 1. […] Mutant 19 includes substitutions at residues R138, M139 and E142.
In order to define the epitopes of the further anti-CD39 antibodies of Example 5, they were tested for loss of binding to the panel of CD39 mutants as described in Example 1 and Table 1. Mutants were transfected in Hek-293T cells, as shown in the table 1, using numbering of SEQ ID NO: 1.Dose-ranges of test antibodies (10-2.5-0.625-0.1563-0.0391-0.0098-0.0024-0.0006 μg/ml) are tested on the 20 generated mutants by flow cytometry.

The target of assay [4] is T4, murine CD39 expressed on CHO cells (murine, UniProt P55772 1-510).
T4 construct: whole, on cells; also called CHO-moCD39; moCD39
T4 sequence (looked up): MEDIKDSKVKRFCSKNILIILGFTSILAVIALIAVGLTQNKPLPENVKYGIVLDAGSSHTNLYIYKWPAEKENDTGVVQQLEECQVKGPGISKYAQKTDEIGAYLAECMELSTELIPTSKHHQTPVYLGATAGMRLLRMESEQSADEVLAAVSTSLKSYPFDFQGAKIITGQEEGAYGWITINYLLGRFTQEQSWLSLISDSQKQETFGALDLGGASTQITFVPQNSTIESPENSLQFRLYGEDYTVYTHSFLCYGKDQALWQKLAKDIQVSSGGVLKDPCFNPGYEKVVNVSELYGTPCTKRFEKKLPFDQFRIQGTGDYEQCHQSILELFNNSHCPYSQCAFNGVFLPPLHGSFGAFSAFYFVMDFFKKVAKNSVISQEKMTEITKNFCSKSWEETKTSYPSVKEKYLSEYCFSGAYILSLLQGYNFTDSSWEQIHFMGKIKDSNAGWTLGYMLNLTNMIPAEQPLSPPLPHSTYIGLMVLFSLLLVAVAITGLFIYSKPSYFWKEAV
Kind of assay: flow cytometry titration on CHO-moCD39 cells. As for the experimental part:
as §1

B1: antibody I-394 (antibody, V domains shown)
VH: EVQLQQSGPELVKPGASVKMSCKASGYTFTDYNMHWVKQSHGRTLEWIGYIVPLNGGSTFNQKFKGRATLTVNTSSRTAYMELRSLTSEDSAAYYCARGGTRFAYWGQGTLVTVSA
VL: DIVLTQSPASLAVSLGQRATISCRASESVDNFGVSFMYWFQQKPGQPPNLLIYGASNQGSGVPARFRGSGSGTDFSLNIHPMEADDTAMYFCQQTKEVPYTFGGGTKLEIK
notes: Mouse variable regions; Produced in CHO with human IgG1 constant domains carrying L234A/L235E/G237A/A330S/P331S (Kabat EU numbering) and a human Ck constant domain
As to B1, the 50% effective concentration (EC50 (read off the curve)) is ~0.4 µg/mL in assay [1] and ~0.2 µg/mL in assay [2]. The molecule also displayed an EC50 in assay [3] of 0.16 µg/mL. Moreover, in the assay with human CD39 mutant 5, the “Median : Comp-Alexa Fluor 647-A” value was 1470. The binding result in assay [4] is on record as “no binding (tested: 30 µg/ml)”.
